Results from patent US20060057104A1, “Methods for stimulating tlr irf3 pathways for inducing anti-microbial, anti-inflammatory and anticancer responses” (THE Regents of the University of California Office of the …, priority 2002, published 2006).

B1: CD40L (protein, UniProt P29965 113-261, looked up)
CD40 ligand, soluble form: MQKGDQNPQIAAHVISEASSKTTSVLQWAEKGYYTMSNNLVTLENGKQLTVKRQGLYYIYAQVTFCSNREASSQAPFIASLCLKSPGRFERILLRAANTHSSAKPCGQQSIHLGGVFELQPGASVFVNVTDPSQVSHGTGFTSFGLLKL
B2: recombinant IFN-β: murine rIFN-β (R&D Systems) (protein, UniProt P01575 22-182, looked up)
Interferon beta: INYKQLQLQERTNIRKCQELLEQLNGKINLTYRADFKIPMEMTEKMQKSYTAFAIQEMLQNVFLVFRNNFSSTGWNETIVVRLLDELHQQTVFLKTVLEEKQEERLTWEMSSTALHLKSYYWRVQRYLKLMKYNSYAWMVVRAEIFRNFLIIRRLTRNFQN

Legend:
Primary murine B cells = test: Microarray analysis of primary murine B cells stimulated with LPS or CD40L; assay type: cell-based; conditions: LPS 20 μg/mL, soluble CD8/CD40L chimera 300 ng/mL
Procedure: (A) Primary murine B cells were stimulated with LPS (20 μg/mL) or a soluble CD8/CD40L chimera (300 ng/mL) and RNA was collected at indicated time points and used to conduct microarray analysis. […] Expression changes: Red—Induced, Green—Repressed, Black—No Change. Selected time points were hybridized to microarrays in duplicate to ensure reproducibility.
B cell isolation, target preparation, and hybridization using Affymetrix Mu6500 microarrays were performed as described previously (Dadgostar, H., Zarnegar, B., Hoffman, A., Qin, X.-F., Truong, U., Rao, G., Baltimore, D., and Cheng, G. (2002), Proc. Natl. Acad. Sci. USA 99, 1497-1502). Differential expression data was analyzed by Affymetrix Microarray Suite 4.0 software. Average difference change values were then normalized and the genes were clustered by the uncentered correlation average linkage hierarchical clustering algorithm using Cluster. Data was then visualized as a dendogram using Treeview software (www.rana.Ibl.gov/EisenSoftware.htm).
We have conducted a series of microarray experiments to determine gene expression patterns in murine B cells in response to activating stimuli such as LPS and CD40L. […] Genes were hierarchically clustered using average difference change values derived by comparing control samples (media 4h) with samples from cells treated with indicated stimulus.

BMMs = test: Quantitative real-time PCR gene expression in BMMs, wild-type and IFNAR deficient (Example 2); assay type: cell-based, murine; conditions: rIFN-β 10, 100, 1000 units
Procedure: Murine BMMs were stimulated with poly(I:C) (10 μg/ml) or lipid A (1 ng/ml) for the indicated times. Total RiNA was isolated and converted to cDNA for quantitative real-time PCR analysis using primers specific for IFN-β, IFI-204, IP10, IκBα, or L32. Experiments were repeated three times, and the data are presented in relative expression units on a log scale, as described in Example 2, infra.
Primary macrophage cells derived from bone marrow cells were stimulated with poly I:C (1 μg/ml) or lipid A (1 ng/ml) for the indicated times, as described in Example 2, infra.
(B) TLR3 and TLR4 mRNA levels were also assessed in cells deficient in IFNAR, and cells stimulated with rIFN-β (10, 100, and 1000 U). Experiments were repeated at least two separate times, and data are presented in relative expression units. L32 was used to normalize all samples.
Both wild-type cells and cells deficient in IFNAR were stimulated with poly I:C (1 μg/ml) or lipid A (1 ng/ml) for either 1 or 4 h. IFN-β, IP10, IFI-204, ICAM1, and L32 mRNA levels were assessed. Data are representative of three independent experiments and presented in relative expression units, as described in Example 2, infra.
Murine bone marrow-derived macrophages (BMMs) were differentiated from marrow as previously described (Doyle, S. E., S. A. Vaidya, R. O'Connell, H. Dadgostar, P. W. Dempsey, T.-T. Wu, G. Rao, R. Sun, M. E. Haberland, R. L. Modlin, and G. Cheng. 2002. IRF3 mediates a TLR3/TLR4-specific antiviral gene program. Immunity 17:251). A129 (IFNAR-1^−/−) (Muller, U., U. Steinhoff, L. F. L. Reis, S. Hemmi, J. Pavlovic, R. M. Zinkernagel, and M. Aguet. 1994. Functional role of type I and type II interferons in antiviral defense. Science 264:1918) and B6129SF2/J wild type control mice were obtained from B&K Universal Ltd. and Jackson Laboratories, respectively. C57/B6 mice were used for all experiments not involving the A129 mice (Jackson Laboratories). Specific TLR activation was achieved using F-583 (Rd mutant) E. coli lipid A for TLR4 (Sigma), CpG oligonucleotides for TLR9 (Invitrogen) and poly I:C for TLR3 (Pharmacia). For experiments employing the TIRAP/MAL inhibitory peptide (CN Biosciences), cells were pretreated for 1 hour with 20 μM peptide or DMSO alone. Cells were then stimulated with PAMPs in the presence of the inhibitory peptide. For experiments using murine rIFN-β (R&D Systems), wild-type macrophage cells were stimulated with 10, 100, or 1000 units. Viral infection and harvest was performed using MHV68 at an M.O.I. of 5 as previously described (Doyle, S. E., S. A. Vaidya, R. O'Connell, H. Dadgostar, P. W. Dempsey, T.-T. Wu, G. Rao, R. Sun, M. E. Haberland, R. L. Modlin, and G. Cheng. 2002. IRF3 mediates a TLR3/TLR4-specific antiviral gene program. Immunity 17:251).
RNA was isolated by standard guanidium isothiocyanate methods. cDNA template for quantitative realtime PCR analysis was then synthesized and PCR was performed using the iCycler thermocycler (Bio-Rad) as previously described (Doyle, S. E., S. A. Vaidya, R. O'Connell, H. Dadgostar, P. W. Dempsey, T.-T. Wu, G. Rao, R. Sun, M. E. Haberland, R. L. Modlin, and G. Cheng. 2002. IRF3 mediates a TLR3/TLR4-specific antiviral gene program. Immunity 17:251). IFN-βIP10, IκBα and IFI-204 primers were the same as those previously described (Doyle, S. E., S. A. Vaidya, R. O'Connell, H. Dadgostar, P. W. Dempsey, T.-T. Wu, G. Rao, R. Sun, M. E. Haberland, R. L. Modlin, and G. Cheng. 2002. IRF3 mediates a TLR3/TLR4-specific antiviral gene program. Immunity 17:251). For other genes, the following primers were used: […]

| Molecule | upregulation of genes previously characterized as interferon-responsive (Primary murine B cells) | TLR4 mRNA levels (BMMs; wild type cells) | TLR3 mRNA (BMMs; wild-type primary macrophages) |
| --- | --- | --- | --- |
| B1 | not |  |  |
| B2 |  | relatively unaltered | dose dependent upregulation |
